Measured values from publication PMC5691136, “The role of CXCR3/LRP1 cross-talk in the invasion of primary brain tumors” (Nature Communications, 2017).

Biological target: CXCR3-A (human CXC chemokine receptor CXCR3, isoform A), stably expressed in U87 cells (human) (UniProt P49682)
Assay: plasmon waveguide resonance (PWR); membrane fragments of U87-CXCR3-A or HEK-CXCR3-A cells captured on the polylysine-treated silica sensor; ligand added incrementally in PBS, 22 °C; shifts of the resonance minimum fitted with a hyperbolic single-site function

Chain of CXCR3-A (human CXC chemokine receptor CXCR3, isoform A), stably expressed in U87 cells (human) (P49682 whole entry, the tested form may be a part, canonical isoform): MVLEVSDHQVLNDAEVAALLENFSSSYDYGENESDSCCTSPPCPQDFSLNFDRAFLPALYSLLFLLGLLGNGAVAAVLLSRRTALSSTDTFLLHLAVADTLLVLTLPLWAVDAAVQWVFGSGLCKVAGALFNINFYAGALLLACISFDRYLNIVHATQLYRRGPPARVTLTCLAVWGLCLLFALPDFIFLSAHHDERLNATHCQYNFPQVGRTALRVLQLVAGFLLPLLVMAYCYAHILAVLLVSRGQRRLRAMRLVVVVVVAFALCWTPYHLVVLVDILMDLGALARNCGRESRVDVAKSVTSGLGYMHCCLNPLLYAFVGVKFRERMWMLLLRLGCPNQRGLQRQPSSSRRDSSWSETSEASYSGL

- Kd: 36 nM
Substance: PS372424 (CXCR3 agonist) (peptide)
